Laboratory results as given in patent US20230365714A1.

Key:
[1] = target: ROR122 shuffle variant (Ig-like domain of ROR1, CRD and kringle domain of ROR2) (human (ROR1/ROR2 chimera)) (UniProt Q01973); experiment: cell imaging (CellInsight) on CHO cells expressing the shuffle construct
[2] = target: ROR112 shuffle variant (Ig-like domain and CRD of ROR1, kringle domain of ROR2) (human (ROR1/ROR2 chimera)) (UniProt Q01973); experiment: as above
Sequence of ROR112 shuffle variant (Ig-like domain and CRD of ROR1, kringle domain of ROR2) (human (ROR1/ROR2 chimera)) (Q01973 other isoform, or with tags, fused parts or gaps mutant limits assumed): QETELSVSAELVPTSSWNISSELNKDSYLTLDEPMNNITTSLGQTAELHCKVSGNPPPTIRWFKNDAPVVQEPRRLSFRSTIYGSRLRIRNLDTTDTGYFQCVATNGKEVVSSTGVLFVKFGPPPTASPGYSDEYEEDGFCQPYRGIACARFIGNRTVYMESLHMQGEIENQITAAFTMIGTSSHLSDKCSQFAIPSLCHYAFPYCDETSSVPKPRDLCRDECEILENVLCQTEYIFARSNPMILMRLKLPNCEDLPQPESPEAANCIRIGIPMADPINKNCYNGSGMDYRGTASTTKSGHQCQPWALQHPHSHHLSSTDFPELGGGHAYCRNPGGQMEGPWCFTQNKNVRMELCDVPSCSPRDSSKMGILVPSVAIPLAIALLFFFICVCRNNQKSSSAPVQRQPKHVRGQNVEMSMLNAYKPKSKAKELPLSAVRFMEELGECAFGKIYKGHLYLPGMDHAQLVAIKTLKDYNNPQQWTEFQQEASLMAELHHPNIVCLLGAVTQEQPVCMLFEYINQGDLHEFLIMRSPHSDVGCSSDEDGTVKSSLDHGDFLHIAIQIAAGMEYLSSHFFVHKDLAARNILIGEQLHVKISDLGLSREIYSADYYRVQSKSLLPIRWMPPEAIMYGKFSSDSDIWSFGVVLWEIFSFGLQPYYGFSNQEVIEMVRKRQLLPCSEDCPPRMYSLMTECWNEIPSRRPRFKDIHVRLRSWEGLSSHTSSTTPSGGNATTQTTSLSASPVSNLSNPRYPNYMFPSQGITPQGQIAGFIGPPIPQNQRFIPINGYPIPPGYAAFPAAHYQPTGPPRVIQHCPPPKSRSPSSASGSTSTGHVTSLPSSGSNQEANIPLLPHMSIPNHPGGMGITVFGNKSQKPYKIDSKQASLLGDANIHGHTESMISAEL

Sequence of ROR122 shuffle variant (Ig-like domain of ROR1, CRD and kringle domain of ROR2) (human (ROR1/ROR2 chimera)) (Q01973 other isoform, or with tags, fused parts or gaps mutant limits assumed): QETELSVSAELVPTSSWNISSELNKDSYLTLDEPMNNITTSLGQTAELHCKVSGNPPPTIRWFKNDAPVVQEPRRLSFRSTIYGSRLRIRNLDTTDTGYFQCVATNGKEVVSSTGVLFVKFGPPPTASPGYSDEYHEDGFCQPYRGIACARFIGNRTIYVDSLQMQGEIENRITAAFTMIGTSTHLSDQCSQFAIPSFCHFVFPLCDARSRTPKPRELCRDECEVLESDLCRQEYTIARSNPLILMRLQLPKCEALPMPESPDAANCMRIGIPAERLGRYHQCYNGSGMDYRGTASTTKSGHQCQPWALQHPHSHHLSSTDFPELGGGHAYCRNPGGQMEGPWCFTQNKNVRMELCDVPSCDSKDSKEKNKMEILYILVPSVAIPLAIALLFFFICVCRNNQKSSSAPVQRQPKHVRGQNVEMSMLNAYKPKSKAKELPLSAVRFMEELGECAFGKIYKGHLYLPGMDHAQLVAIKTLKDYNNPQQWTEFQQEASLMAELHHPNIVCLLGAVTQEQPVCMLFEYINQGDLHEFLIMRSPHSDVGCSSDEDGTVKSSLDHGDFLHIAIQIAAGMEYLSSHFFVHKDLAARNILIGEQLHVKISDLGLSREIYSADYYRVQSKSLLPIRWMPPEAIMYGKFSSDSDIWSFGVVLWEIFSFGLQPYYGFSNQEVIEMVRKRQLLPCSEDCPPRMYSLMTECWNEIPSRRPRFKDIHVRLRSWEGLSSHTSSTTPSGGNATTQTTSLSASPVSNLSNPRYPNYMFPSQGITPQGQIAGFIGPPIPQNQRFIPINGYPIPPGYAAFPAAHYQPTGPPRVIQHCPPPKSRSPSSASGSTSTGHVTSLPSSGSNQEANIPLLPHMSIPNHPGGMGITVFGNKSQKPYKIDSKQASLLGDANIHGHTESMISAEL

B1: chIgG1-ROR2-A (antibody, V domains shown)
VH: QSVEESGGRLVTPGTPLTLTCTVSGFSLSSYSMSWVRQAPGKGLEWIGVIYVNSKTWYANWAKGRFTISKTSTTVDLKITSPTTEDTATYFCARGDAGYTTNSWLWGPGTLVTVSS
VL: AFELTQTPASVSEPVGGTVTIKCQASESIDNYCSWYQQKPGQPPKLLIYQAFKLASGVPSRFRGSGSGTQFTLTISDLESDDAATYYCQSYSGISTTAFGGGTEVVVK
- RFU (total spot intensity) [1]: > 12000 RFU
- RFU (total spot intensity) [2]: > 12000 RFU
